In patent publication US5607847:

Biological target: gp120 of HIV-1 strain IIIB (HIV-1 IIIB)

B1: murine monoclonal antibody NM-01 (antibody, V domains shown)
VH: QIQLKESGPAVIKPSQSLSLTCIVSGFSITSSSYCWHWIRQPPGKGLEWMGRICYEGSIDYSPSIKSRSTISRDTSLNRFFIQLSSVTNEDTAMYYCSRENHGTTTSMDYWGQGTSVTVSS
VL: DIVLTQSPASLAVSLGQRATISCRASESVDSYGNSFMHWYQQKPGQSPKLLIYVASNLESGVPARFSGSGSRTDFTLTIDPVEADDAATYYCQQNNEDPLTFGAGTKLELK
50% neutralization by the p24 assay: 0.15 µg/mL
ID50 (reverse transcriptase assay): 0.2 µg/mL
